{"source": "patent US11111484B2", "about": "“Streptococcus bacteriophage lysins for detection and treatment of gram positive bacteria” (priority 2011, dated 2021)", "key": {"[1]": {"system": "MRSA strain MW2 and S. pyogenes strain MGAS5005", "assay": "murine septicemia model, mixed MRSA and S. pyogenes infection", "format": "in vivo, FVB/NJ mice", "conditions": "PlySs2 2 mg, ClyS 1 mg + PlyC 1 mg", "description": "The Rockefeller University's Institutional Animal Care and Use Committee approved all in vivo protocols. A systemic infection model described in Daniel, A. et al., was used to test for the in vivo efficacy of PlySs2 against multiple gram-positive bacteria. Briefly, 4-5 week old female FVB/NJ mice (weight range 15 to 20 g) were obtained from The Jackson Laboratory (Bar Harbor, Me.). After a period of acclimation, mice were injected intraperitoneally (IP) with 0.5 ml of mid log-phase (OD600 0.5) bacteria diluted with 5% hog gastric mucin (Sigma) in saline. Bacterial suspensions contained ˜5×10^5 CFU/ml of MW2, a PVL toxin-encoding MRSA strain, ˜1×10^7 of MGAS5005, an M1 serotype of Streptococcus pyogenes that is virulent in humans and mice (Musser), or a combination of both bacteria simultaneously at the above concentrations for the mix infection experiments. Actual bacterial inoculation titers were calculated by serial dilution and plating to Columbia blood agar plates for each experiment. […] The survival rate for each experimental group was monitored every 12 hours for the first 24 hours then every 24 hours up to 10 days post-infection. The data were statistically analyzed by Kaplan Meier Survival curves and a Logrank test performed for 95% confidence intervals using the Prism computer program (GraphPad Software; La Jolla, Calif.). […]"}, "[2]": {"system": "S. suis strain 7711", "assay": "ΔPlySs1 biochemical characterization, turbidity reduction (OD600)", "format": "cell-based, Streptococcus suis", "conditions": "for activity after 6 hours at 40° C. / activity after 6 hours at 45° C.: 6-hr incubation; for pH of maximal activity in bis-tris-propane: BTP 40 mM, pH 7.0-9.7, 110 μg/ml; for temperature at which activity completely abolished: held 30 min at 35° C.-60° C.; for effect of DTT on activity: pre-incubated 1 hr with 5 mM DTT", "description": "The optimal biochemical conditions for PlySs1 were determined against live cells of the encoding S. suis strain (7711). For these experiments, activity was gauged through the degree of turbidity reduction (OD600) of an aqueous bacterial suspension following the addition of lysin. The pH-dependence of the enzyme was first addressed using two buffer sets with adjacent pH ranges, citrate/phosphate: 4.6-8.0; and bis-tris-propane (BTP): 7.0-9.7. An extended spectrum of lysis was observed, from 5.4-9.4 (FIG. 11A). In BTP, lysis was maximal from 8.2-9.0; at commensurate pH-values, however, the magnitude of the OD-drop was slightly more pronounced in citrate/phosphate (FIG. 11B).\nThe thermal stability of PlySs1 was examined by incubating the enzyme at various elevated temperatures prior to use (the OD-drop experiment itself was always conducted at 37° C.). When held at 35° C.-60° C. for 30 min, lysin activity was virtually unaffected until 50° C., at which point it was completely abolished (FIG. 14A). […] The latter corresponds to typical porcine body temperature."}, "[3]": {"system": "S. suis 7711 (ST7)", "assay": "ΔPlySs1 CFU analysis, 1 hr treatment", "format": "cell-based, Streptococcus suis", "description": "(§1) Truncated PlySs1(ΔPlySs1) lysin activity was determined against different cell types. Given the above experiments, the following optimal buffering conditions were employed for all further in vitro experiments with ΔPlySs1: 20 mM phosphate buffer, pH=7.8, 2 mM EDTA. A range of lysin concentrations, from 6.5-130 μg/ml, were introduced to live S. suis cells in this buffer. Three strains were considered particularly relevant: 7711, the serotype 7 strain that encodes PlySs1; S735, the serotype 2 reference strain; and 7997, a highly virulent serotype 9 strain. In terms of bacterial viability, only the highest PlySs1-concentration (130 μg/ml) led to a >90% decrease in CFUs for 7711, S735, and 7997 after 1 hr treatment (TABLE 2). The lysin was also tested against actively-dividing cells in broth culture (strain 7711) (FIG. 20).\n(§2) For two ΔPlySs1 concentrations (130 and 13 μg/ml), CFU analysis was conducted on S. suis strains S735, 7997, and 7711 after 1 hr treatment (optimal buffering conditions). In each experiment, the percentage-decrease in CFUs was determined for the treated sample versus the untreated. The range of the values observed (across 3 independent experiments) is reported here for each strain. The serotype of each strain is indicated in parentheses."}, "[4]": {"system": "S. suis S735 (ST2)", "assay": "ΔPlySs1 CFU analysis, 1 hr treatment", "format": "cell-based, Streptococcus suis", "description": "as §1, §2"}, "[5]": {"system": "S. suis 7997 (ST9)", "assay": "ΔPlySs1 CFU analysis, 1 hr treatment", "format": "cell-based, Streptococcus suis", "description": "as §1, §2"}, "[6]": {"system": "S. sobrinus 6715", "assay": "ΔPlySs1 OD600 lysis, 1 hr, optimal buffering conditions", "format": "cell-based, Streptococcus sobrinus"}, "[7]": {"system": "S. pneumoniae R36", "assay": "ΔPlySs1 OD600 lysis, 1 hr, optimal buffering conditions", "format": "cell-based, Streptococcus pneumoniae"}}, "note": "Values joined by “and” are separate entries in the source; they are usually repeats but may differ in a detail not shown here. Equal values may be shown once.", "data": [{"molecule": "PlySs2: Streptococcus suis prophage lysin, SEQ ID NO:3; N-terminal CHAP domain and C-terminal SH3-type 5 domain (protein, listed as Streptococcus suis) MTTVNEALNNVRAQVGSGVSVGNGECYALASWYERMISPDATVGLGAGVGWVSGAIGDTISAKNIGSSYNWQANGWTVSTSGPFKAGQIVTLGATPGNPYGHVVIVEAVDGDRLTILEQNYGGKRYPVRNYYSAASYRQQVVHYITPPGTVAQSAPNLAGSRSYRETGTMTVTVDALNVRRAPNTSGEIVAVYKRGESFDYDTVIIDVNGYVWVSYIGGSGKRNYVATGATKDGKRFGNAWGTFK", "values": [{"measurement": "survival of mixed infection", "setting": "[1]", "value": 92, "unit": "%"}, {"measurement": "survival of mixed infection (mice surviving/total)", "setting": "[1]", "value": "22 of 24 and 22/24"}]}, {"molecule": "ΔPlySs1: truncated PlySs1 lysin, SEQ ID NO:2, N-terminal 254 amino acids: only N-terminal enzymatic and central binding domains (protein, listed as Streptococcus suis) MTINLETSIRWMSDRVGKVSYSMDYRNGPNSYDCSSAVYYALMAGGAISAGWAVNTEYMHDWLIRNGYVLVAENKPFNAQRHDVCILGKRGYSSGAGGHVVIFVDNVNVIHCNYARNGISIDNYNQVHRGMYYYLYRPANQPSISNKSLDQLVKETLAGVHGNGDTRKASLGSQYEAVMAVINGKASASEKSDEELAREVLAGKHGAGEDRKRSLGPRYEPVQAKVNELLKAKEKPSETAKNEPQTVQFKEDGDL", "values": [{"measurement": "effect of NaCl on bacteriolysis", "setting": "[2]; 0-1000 mM NaCl", "value": "bacteriolysis varied little"}, {"measurement": "activity after 6 hours at 40° C.", "setting": "[2]", "value": "maintained essentially native activity"}, {"measurement": "activity after 6 hours at 40° C.", "setting": "[2]; listed as PlySs1", "value": "unaffected"}, {"measurement": "activity after 6 hours at 45° C.", "setting": "[2]", "value": "some loss of activity, though not complete"}, {"measurement": "activity after 6 hours at 45° C.", "setting": "[2]; listed as PlySs1", "value": "partial decrease in activity"}, {"measurement": "pH of maximal activity in bis-tris-propane", "setting": "[2]", "value": 9.0}, {"measurement": "pH of maximal activity in bis-tris-propane", "setting": "[2]; listed as PlySs1", "value": "8.2-9.0"}, {"measurement": "pH spectrum of lysis", "setting": "[2]; citrate/phosphate 4.6-8.0 and BTP 7.0-9.7", "value": "5.4-9.4"}, {"measurement": "effect of EDTA on activity", "setting": "[2]; excess EDTA", "value": "did not negatively impact activity"}, {"measurement": "temperature at which activity completely abolished", "setting": "[2]", "value": "complete loss of activity was observed between the 45 °C and 50 °C samples"}, {"measurement": "temperature at which activity completely abolished", "setting": "[2]; listed as PlySs1", "value": 50, "unit": "°C"}, {"measurement": "effect of DTT on activity", "setting": "[2]", "value": "activity was unchanged"}, {"measurement": "effect of DTT on activity", "setting": "[2]; listed as PlySs1", "value": "did not negatively impact activity"}, {"measurement": "percentage-decrease in CFUs, range of 3 experiments", "setting": "[3]; 13 μg/ml", "value": "0%-35.6%"}, {"measurement": "percentage-decrease in CFUs, range of 3 experiments", "setting": "[3]; 130 μg/ml", "value": "95.3%-99.2%"}, {"measurement": "percentage-decrease in CFUs, range of 3 experiments", "setting": "[3]; 130 μg/ml, listed as PlySs1", "value": "> 90", "unit": "%"}, {"measurement": "percentage-decrease in CFUs, range of 3 experiments", "setting": "[4]; 13 μg/ml", "value": "80.4%-92.6%"}, {"measurement": "percentage-decrease in CFUs, range of 3 experiments", "setting": "[4]; 130 μg/ml", "value": "95.4%-99.5%"}, {"measurement": "percentage-decrease in CFUs, range of 3 experiments", "setting": "[4]; 130 μg/ml, listed as PlySs1", "value": "> 90", "unit": "%"}, {"measurement": "percentage-decrease in CFUs, range of 3 experiments", "setting": "[5]; 13 μg/ml", "value": "16.8%-30.3%"}, {"measurement": "percentage-decrease in CFUs, range of 3 experiments", "setting": "[5]; 130 μg/ml", "value": "89.9%-93.9%"}, {"measurement": "percentage-decrease in CFUs, range of 3 experiments", "setting": "[5]; 130 μg/ml, listed as PlySs1", "value": "> 90", "unit": "%"}, {"measurement": "lysis value after 1 hr (treated/untreated OD600 ratio)", "setting": "[6]; 6.5 μg/ml", "value": 0.64}, {"measurement": "lysis value after 1 hr (treated/untreated OD600 ratio)", "setting": "[6]; 13 μg/ml", "value": 0.48}, {"measurement": "lysis value after 1 hr (treated/untreated OD600 ratio)", "setting": "[6]; 30 μg/ml", "value": 0.39}, {"measurement": "lysis value after 1 hr (treated/untreated OD600 ratio)", "setting": "[6]; 65 μg/ml", "value": 0.32}, {"measurement": "lysis value after 1 hr (treated/untreated OD600 ratio)", "setting": "[6]; 130 μg/ml", "value": 0.23}, {"measurement": "lysis value after 1 hr (treated/untreated OD600 ratio)", "setting": "[7]; 6.5 μg/ml", "value": 0.25}, {"measurement": "lysis value after 1 hr (treated/untreated OD600 ratio)", "setting": "[7]; 13 μg/ml", "value": 0.22}, {"measurement": "lysis value after 1 hr (treated/untreated OD600 ratio)", "setting": "[7]; 30 μg/ml", "value": 0.14}, {"measurement": "lysis value after 1 hr (treated/untreated OD600 ratio)", "setting": "[7]; 65 μg/ml", "value": 0.16}, {"measurement": "lysis value after 1 hr (treated/untreated OD600 ratio)", "setting": "[7]; 130 μg/ml", "value": 0.12}]}]}
